Columns and labels:
human FXIa factor [1] = biological target: T1, human FXIa factor (human, UniProt P03951 19-625); assay: cell-based or functional assay
human FXIa factor [2] = biological target: T1, human FXIa factor; assay: cell-based or functional assay; remark: listed apart in the source
human FXIa factor [3] = biological target: T1, human FXIa factor; assay: cell-based or functional assay; remark: listed apart in the source
human FXIa factor [4] = biological target: T1, human FXIa factor; assay: Biacore 8K (SPR), human FXIa in 2-fold dilution series
human FXIa factor [5] = biological target: T1, human FXIa factor; assay: cell-based or functional assay; remark: listed apart in the source

Binder | IC50 (nM) from S2366 Assay (human FXIa factor [2]) [nM] | FXIa kit Activity Assay (nM), IC50 (human FXIa factor [3]) [nM] | further results
chimeric antibody 17E10 (antibody, V domains shown) VH: EVQLEESGPGLVKPSQSLSLTCSVTGYSITSGFYWNWIRQFPGNKLEWMGYISFDGRHNYNPSLKNRFSITRDTSKNQFFLKLTSVTAEDTATYYCARDLITTVYYYPMDYWGQGTSVTVSS VL: DIVMTQSHKFMSTSVGDRVSITCKASQDVGTAVDWYQQKTGQSPKLLIYWASTRHTGVPDRFTGSGSGTDFTLTISNVQSEDLADYFCQQYSNYPLTFGAGTKLELK |  |  | FXIa Kit Activity Assay (nM), IC50 (First Batch) (human FXIa factor [1]): 11.6 nM
humanized antibody 14F3-1 (antibody, human IgG1, kappa, V domains shown, To be verified) VH: QVQLVQSGAEVKKPGASVKVSCKASGYTFTNYLIEWVRQAPGQGLEWMGVINPGSGYTNYNENFKDRVTMTRDTSISTAYMELSRLRSDDTAVYYCARTYGKYGGAMDFWGQGTTVTVSS VL: DIVMTQSPDSLAVSLGERATINCKASQSVSNDVAWYQQKPGQPPKLLIYYISNRYTGVPDRFSGSGSGTDFTLTISSLQAEDVAVYYCQQDYSSPPTFGGGTKLEIKR | 45.4 | 7.5 | Kd (human FXIa factor [4]): 0.000809 nM; koff (human FXIa factor [4]): 1.05e-05 s⁻¹; kon (human FXIa factor [4]): 1.3e+07 M⁻¹ s⁻¹
chimeric antibody 17E3C10 (antibody, V domains shown) VH: QVKLQESGPELRKPGETVYISCKASGYTFTNYGVNWVKQAPGKGLKWMGWINTYTGEPIYADDFKGRFAFSLETSANTAYLQISNLTNEDTATYFCARLYLYGNTYDYYAMDYWGQGTSVTVSS VL: DIVLTQTPSSMYASLGERVTITCKASQDISTYLSWFQQKPGKSPKTLIYRANRLIDGVPSRFSGSGSGQDFSLTISSLEYEDMGVYYCLQYDDLNTFGGGTKLEIK |  |  | FXIa Kit Activity Assay (nM), IC50 (Second Batch) (human FXIa factor [1]): 0.781 nM; IC50(nM) from S2366 assay (Second Batch) (human FXIa factor [5]): 44.4 nM
chimeric antibody 14F3 (antibody, V domains shown) VH: QVQLQQSGAELVRPGTSVTVSCKASGYAFSNYLIEWVNQRPGQGLEWIGVINPGSGYTNYNENFKDKATLTADTSSSTAYMQLSSLTSDDSAVYFCARTYGKYGGAMDFWGQGTSVTVSS VL: DIVMTQTPKFLLVSAGDRVTITCKASQSVSNDVAWYQQKPGQSPKLLIYYISNRYTGVPDRFTGSGYGTDFTFTINTVQAEDLAVYFCQQDYSSPPTFGGGTKLEIK |  |  | FXIa Kit Activity Assay (nM), IC50 (First Batch) (human FXIa factor [1]): 7.77 nM; IC50(nM) from S2366 assay (First Batch) (human FXIa factor [5]): 78.7 nM
Osocimab (antibody, V domains shown) VH: EVQLLESGGGLVQPGGSLRLSCAASGFTFSQYGMDWVRQAPGKGLEWVSGIGPSGGSTVYADSVKGRFTISRDNSKNTLYLQMNSLRAEDTAVYYCTRGGPYYYYGMDVWGQGTTVTVSS VL: DIQMTQSPSSLSASVGDRVTITCQASQDISNYLNWYQQKPGKAPKLLIYDASNLETGVPSRFSGSGSGTDFTFTISSLQPEDIATYYCQQADSFPVTFGGGTKVEIK | 226 | 32.5 | Kd (human FXIa factor [4]): 6.37 nM; koff (human FXIa factor [4]): 0.00411 s⁻¹; kon (human FXIa factor [4]): 645000 M⁻¹ s⁻¹
chimeric antibody 3B3 (antibody, V domains shown) VH: EVQLEESGADLVRPGTSVKVSCKASGYAFTNYLIDWLKQRPGQGLEWIGVINPGSGITNYNEKFKGKATLTTDTSSSTAYMQLTNLTSDDSAVYFCARGDGTYYEDFLDYWGQGTSVTVSS VL: DIVLTQTTSSIYTSLGERVTITCKASQDINSYLSWFQQRPGRSPKTLIYRANRLMDGVPSRFSGSGSGRDFSLTISSLDYEDMGIYYCLQYDEFPLTFGAGTKLELK |  |  | IC50(nM) from S2366 assay (Fourth Batch) (human FXIa factor [5]): 42.4 nM
chimeric antibody 29E10C4 (antibody, V domains shown) VH: QVKLEESGAELVRPGTSVKVSCKASGYAFTDYFIEWIKQRPGQGLEWIGVINPGNDVTNYNEKFKGKATLTVDKSSTTAYMQLSSLTSDDSAVYFCTRSAGNYENSMDFWGQGTSVTVSS VL: DIVLTQSPKFLLVSAGDRVTITCKASQSVSNDVGWYQQKPGQSPKLLIYYTSNRYTGVPDRFTGSGYGTDFTFTISSVQAEDLAVYFCQQDYHFPLTFGAGTKLELK |  |  | FXIa Kit Activity Assay (nM), IC50 (Second Batch) (human FXIa factor [1]): 0.219 nM; IC50(nM) from S2366 assay (Second Batch) (human FXIa factor [5]): 34.9 nM

Second part, led by results:

IC50 (nM) from S2366 Assay (human FXIa factor [2]) [nM] | FXIa kit Activity Assay (nM), IC50 (human FXIa factor [3]) [nM] | Binder | further results
54.1 | 8.53 | humanized antibody 14F3-Z1 (antibody, human IgG1, kappa, V domains shown) VH: QVQLVQSGAEVKKPGASVKVSCKASGYAFSNYLIEWVGQAPGQGLEWMGVINPGSGYTNYNENFKDRVTMTAHTSISTAYMELSRLRSDDTAVYFCARTYGKYGGAMDFWGQGTLVTVSS VL: DIQMTQSPSSLSASVGDRVTITCKASQSVSNDVAWYQQKPGKAPKLLIYYISNRYTGVPSRFSGSGSGTDFTFTISSLQPEDIATYFCQQDYSSPPTFGQGTKLEIKR | 
55.8 | 13.6 | humanized antibody 14F3-Z4 (antibody, human IgG1, kappa, V domains shown) VH: QVQLVQSGAEVKKPGSSVKVSCKASGYAFSNYLIEWVRQAPGQGLEWMGVINPGSGYTNYNENFKDRVTITADESTSTAYMELSSLRSEDTAVYFCARTYGKYGGAMDFWGQGTTVTVSS VL: DIQMTQSPSFLSASVGDRVTITCKASQSVSNDVAWYQQKPGKAPKLLIYYISNRYTGVPSRFSGSGSGTDFTLTISSLQPEDFATYFCQQDYSSPPTFGQGTKLEIKR | 
43 | 9.69 | humanized antibody 14F3-2 (antibody, human IgG1, kappa, V domains shown) VH: QVQLVQSGAEVKKPGASVKVSCKASGYTFTNYLIEWVRQAPGQGLEWMGVINPGSGYTNYNENFKDRVTMTRDTSISTAYMELSRLRSDDTAVYYCARTYGKYGGAMDFWGQGTTVTVSS VL: DIVMTQSPDSLAVSLGERATINCKASQSVSNDVAWYQQKPGQPPKLLIYYISNRYTGVPDRFSGSGSGTDFTLTISSLQAEDVAVYFCQQDYSSPPTFGGGTKLEIKR | 
64.7 | 15.7 | humanized antibody 14F3-4 (antibody, human IgG1, kappa, V domains shown) VH: QVQLVQSGAEVKKPGASVKVSCKASGYTFTNYLIEWVRQAPGQGLEWIGVINPGSGYTNYNENFKDRATLTADTSISTAYMELSRLRSDDTAVYFCARTYGKYGGAMDFWGQGTTVTVSS VL: DIVMTQSPDSLAVSLGERATINCKASQSVSNDVAWYQQKPGQPPKLLIYYISNRYTGVPDRFSGSGSGTDFTLTISSLQAEDVAVYFCQQDYSSPPTFGGGTKLEIKR | 
56.3 | 13.5 | humanized antibody 14F3-Z3 (antibody, human IgG1, kappa, V domains shown) VH: QVQLVQSGAEVKKPGSSVKVSCKASGYAFSNYLIEWVRQAPGQGLEWMGVINPGSGYTNYNENFKDRVTITADESTSTAYMELSSLRSEDTAVYYCARTYGKYGGAMDFWGQGTTVTVSS VL: DIQMTQSPSFLSASVGDRVTITCKASQSVSNDVAWYQQKPGKAPKLLIYYISNRYTGVPSRFSGSGSGTDFTLTISSLQPEDFATYYCQQDYSSPPTFGQGTKLEIKR | 
57.3 | 8.79 | humanized antibody 14F3-Z2 (antibody, human IgG1, kappa, V domains shown) VH: QVQLVQSGAEVKKPGASVKVSCKASGYAFSNYLIEWVGQAPGQGLEWMGVINPGSGYTNYNENFKDRVTMTRHTSISTAYMELSRLRSDDTAVYFCARTYGKYGGAMDFWGQGTLVTVSS VL: DIQMTQSPSSLSASVGDRVTITCKASQSVSNDVAWYQQKPGKAPKLLIYYISNRYTGVPSRFSGSGSGTDFTFTISSLQPEDIATYYCQQDYSSPPTFGQGTKLEIKR | 
52.7 | 10.7 | humanized antibody 14F3-3 (antibody, human IgG1, kappa, V domains shown) VH: QVQLVQSGAEVKKPGASVKVSCKASGYTFTNYLIEWVRQAPGQGLEWIGVINPGSGYTNYNENFKDRATLTADTSISTAYMELSRLRSDDTAVYFCARTYGKYGGAMDFWGQGTTVTVSS VL: DIVMTQSPDSLAVSLGERATINCKASQSVSNDVAWYQQKPGQPPKLLIYYISNRYTGVPDRFSGSGSGTDFTLTISSLQAEDVAVYYCQQDYSSPPTFGGGTKLEIKR | 

Reference: patent EP4644426A1 (Gan & Lee Pharmaceuticals Co., Ltd., dated 2025)
